Source: patent US12428627B2, “Mutant p-hydroxyphenylpyruvate dioxygenase, and coding nucleic acid and use thereof” (Qingdao Kingagroot Chemical Compound Co., Ltd., priority 2018, dated 2025)

Tests used:
OsHPPD proteins = assay: Inhibitory activity (IC50) of the herbicide 101 and huanbifucaotong against OsHPPD proteins; format: biochemical, Oryza sativa; details: for resistance in in vitro enzyme activity experiments: herbicides 101 and huanbifucaotong
Protocol: (§1) • 1. The activity of a HPPD enzyme was determined by detecting the conversion of 4-hydroxyphenylpyruvate (4-HPP) to homogentisic acid (HGA) catalyzed by the HPPD enzyme and the conversion of HGA to maleylacetoacetate (MAA) catalyzed by homogentisate dioxygenase. […] 6 μl of 4-hydroxyphenylpyruvate (4-HPP) having a concentration that was as 50 times as the final concentration of the substrate were added to an ELSA plate, and then 294 μL of hydroxyethylpiperazine ethanesulfonic acid (HEPES) with a final concentration of 25 mM and pH of 7, 2 mM of Vitamin C, 10 mM FeSO4, 50 nM homogentisate dioxygenase and 5 to 240 nM HPPD enzyme were added thereto at one time. The final concentration of reaction substrate 4-HPP usually ranged from 1 to 100 μM. • 3. The absorbance changes of the reaction wells at 318 nm were continuously monitored by a UV ELISA detector (ReadMax 1900 photoabsorption type full-wavelength microplate reader) (Shanghai). • 4. Determination of Km, Kcat and Kcat/Km of OsHPPDs
• 5. Determination of inhibitory activity (IC50) of the herbicide 101 and huanbifucaotong against OsHPPD proteins
Due to the unique properties of each of 101 and huangbifucaotong, the degree of the increased IC50 value is not completely consistent for the two HPPD herbicides.

rice HPPD (OsHPPD) = assay: Color reaction of recombinant E. coli expressing wild-type or mutant rice HPPD, cultured in 96-well plate in medium containing an HPPD-inhibiting herbicide and tyrosine; format: cell-based, Oryza sativa; parameters: key to relative resistance to Tembotrione / relative resistance to Benzuofucaotong metabolic product / relative resistance to Huanbifucaotong / relative resistance to Topramezone / relative resistance to Mesotrione / resistance to Tembotrione / resistance to Benzucfucaotong metabolic product / resistance to Huanbifucaotong / resistance to Topramezone / resistance to Mesotrione: The more the plus sign “+”, the deeper the color and the higher the resistance/tolerance as compared to the wild type; details: for resistance ranking in color reaction: compound 101
Source text: The rice full-length OsHPPD enzyme has 446 amino acids and its amino acid sequence is set forth in SEQ ID NO: 2, wherein the amino acids 1-50 are considered to constitute a signal peptide which is responsible for directing into chloroplast (Siehl et al. Plant Physiol. 2014 November; 166(3): 1162-1176). Therefore, from the amino acid at the 51-position to the amino acid at the […], a saturated random mutation was made for each amino acid. This was achieved by performing a bridge PCR by using a primer containing a coding sequence of an amino acid to be mutated into NNK and another suitable conventional primer. In NNK, N represented A/T/G/C and K represented G/T, and the NNK codon could encode any one of 20 amino acids or terminators. Accordingly, this was a saturated mutation. Please see: Kille S. Acevedo-Rocha C G, Parra L P, Zhang Z G, Opperman D J, Reetz M T, Acevedo J P (2013) Reducing codon redundancy and screening effort of combinatorial protein libraries created by saturation mutagenesis. ACS Synth Biol 2(2):83-92; Directed Evolution Library Creation: methods and protocols 2nd ed. Edited by Elizabeth M. J. Gillam, Janine N. Copp and David F. Ackerley New York, NY United States: Springer, 2014. doi:10.1007/978-1-4939-1053-3. A large number of mutants would be produced. The mutant was cloned into a linearized pET-44a vector and transformed into E. co/i, which was cultivated by using a 96-well plate in a 2×YT culture solution containing an HPPD-inhibiting herbicide (such as 1-2 μM tembotrione) and a substrate tyrosine (1 g/L) in a shaker at 28° C. and 150 rpm for 24 hours for expression, and then the mutants were rapidly screened out according to their color browning. By using the method, 10 single amino acid mutants, A103S, H141R, H141 K, H141T, A165V, V191I, R220K, G342D, D370N and K410I, were screened out. The color reaction of these resistant mutants in the presence of tembotrione and the metabolic product of benzuofucaotong relative to that of the wild type was as shown in FIG. 1.
Similarly, the color reaction of these mutants in the presence of the other three HPPD-inhibiting herbicides huanbifucaotong, topramezone and mesotrione were determined, see FIGS. 2 and 3. The resistance/tolerance of each of the mutants to the five herbicides was roughly estimated on the basis of color changes thereof and the results were shown in Table 1. The more the plus sign “+”, the deeper the color and the higher the resistance/tolerance as compared to the wild type.
HPPD-inhibiting herbicides inhibited HPPD enzymatic activity. When tyrosine was converted to 4-hydroxyphenylpyruvate (HPP) under the action of tyrosine transaminase, the inactivated HPPD was unable to oxidize 4-hydroxyphenylpyruvate into homogentisic acid (HGA). HGA was dark brown. Therefore, if an HPPD mutant was resistant to or tolerant to an herbicide, after expressed in E. coli, the mutant could also oxidize 4-hydroxyphenylpyruvate into homogentisic acid, whereby dark brown appeared. Therefore, E. coli was cultured in a 2×YT culture medium containing a HPPD-inhibiting herbicide and a substrate tyrosine using a 96-well plate to express HPPD, and these mutants were rapidly screened according to their color changes. • (1) Preparation of 2×YT culture medium (1 g/L L-Tyr, 0.1 mM IPTG, 0.01 mM MnCl2 and 100 mg/L ampicillin were added). • (2) 0.1 mL of the above medium was added to each well of a 96-well plate, and the expression clones of OsHPPD wild type or mutant (OsHPPD Mut) from the E. coli plate obtained by the above transformation were subjected to liquid culture in the 96-well plate. HPPD inhibitors having a final concentration of 1 μM-20 μM were added according to different selected agents, for example, the final concentration of tembotrione was 1.7 μM while mesotrione was 10 μM. […]

OsHPPD = assay: HPPD enzyme activity assay: Km, Kcat and Kcat/Km of OsHPPDs; format: biochemical, Oryza sativa; details: substrate 4-HPP
Protocol: The rice OsHPPD protein and homogentisate 1,2-dioxygenase (HGD) were obtained by heterologously expressed in E. coli wherein the gene was inserted into the pET 15b expression vector and expressed in the BL21 (DE3) expression strain, and purified by the Ni-NTA resin. • (1) The HPPD open reading frame (ORF) of the positive clone was cloned into the pET-15b vector to form a 6His-HPPD expression vector, and transformed into the BL21 (DE3) cell. The expression strain was inoculated in 10 mL of 2×YT culture medium, and cultivated overnight on a shaker at 37° C. and 200 rpm. The 10 mL of the culture was inoculated in 1 L of 2×YT culture medium and cultivated until the OD600 reached 0.6-0.8, cooled to a temperature of 16° C., and subjected to induced-expression with 0.2 mM IPTG (isopropyl thiogalactoside) overnight. The strains were collected by centrifugation at 2800×g. • (2) The collected strains were re-suspended with the buffer A (50 mM Tris pH 8.0, 500 mM NaCl, 20 mM imidazole), to which PMSF (phenylmethanesulfonyl fluoride) at the final concentration of 1 mM and 250 μL of a protease inhibitor cocktail (i.e., a mixture of multiple protease inhibitors), and mixed. The cells were broken by ultrasound in ice-bath (40% total power, work for 3 seconds/6 seconds interval, 2×30 minutes (Ningbo Scientz Biotechnology Co., Ltd., Ningbo, China)), and centrifuged at 12000 rpm at 4° C. for 30 minutes; and the supernatant was filtered with a 0.22 μm filter membrane. • (3) Purification with the Ni-NTA column: the supernatant was in contact with the Ni-NTA resin, then rinsed with a buffer A containing 50 mM imidazole to remove the impurities, and finally, eluted with an elution buffer containing 400 mM imidazole. • (4) The approximate purity of the protein of interest was analyzed by SDS-PAGE. The eluates containing of the protein of interest were combined and concentrated by an ultrafiltration device (10 kDa molecular weight cut-off, Amicon Ultra). The solution was replaced with a solution containing 20 mM Tris-HCl and having a pH of 7.5 for at least 3 times to desalt. The total protein concentration was determined by the BCA method.
as §1
Vmax is the maximum catalytic reaction rate achievable by enzymatic catalysis. The Michaelis constant Km is the concentration of a substrate required when the enzyme catalyzed the reaction to achieve half of the maximum rate (Vmax). The Km value is a constant and independent of the enzyme concentration, and altered as substrate type, reaction temperature, pH, and ionic strength changed. […] is a catalytic constant of an enzyme and referred to the number of substrate molecules that could be catalyzed by an enzyme molecule or enzyme active center per second. KCat/Km represents the catalytic efficiency of enzyme. It could be seen from the data in the table that the catalytic efficiency of most HPPD mutants was enhanced.

[1] = Table 1, single-site mutants, estimated from color change, wild type = +
[2] = Table 3, single-site and multi-site mutants, different time and plates, estimated from color shades

Row | Molecule | resistance in in vitro enzyme activity experiments (OsHPPD proteins) | resistance ranking in color reaction (rice HPPD (OsHPPD)) | Km (OsHPPD) [µM] | concentration of compound 101 at which activity is completely inhibited (OsHPPD proteins; FIG. 10 inhibition curve) | relative resistance to Benzuofucaotong metabolic product (rice HPPD (OsHPPD); [1]) | relative resistance to Huanbifucaotong (rice HPPD (OsHPPD); [1]) | relative resistance to Mesotrione (rice HPPD (OsHPPD); [1]) | relative resistance to Tembotrione (rice HPPD (OsHPPD); [1]) | relative resistance to Topramezone (rice HPPD (OsHPPD); [1]) | resistance to Benzucfucaotong metabolic product (rice HPPD (OsHPPD); [2]) | resistance to Huanbifucaotong (rice HPPD (OsHPPD); [2]) | resistance to Mesotrione (rice HPPD (OsHPPD); [2]) | resistance to Tembotrione (rice HPPD (OsHPPD); [2]) | resistance to Topramezone (rice HPPD (OsHPPD); [2])
1 | N338D/G342D/R346H: mutant rice HPPD (protein, listed as Oryza sativa, The amino acid sequence of Wild-Type rice HPPD protein (OsHPPD _WT)) MPPTPTPTATTGAVSAAAAAGENAGFRLVGHRRFVRANPRSDRFQALAFHHVELWCADAASAAGRFAFALGAPLAARSDLSTGNSAHASLLLRSASVAFLFTAPYGGDHGVGADAATTASIPSFSPGAARRFAADHGLAVHAVALRVADAADAFRASVAAGARPAFQPADLGGGFGLAEVELYGDVVLRFVSHPDGADAPFLPGFEGVSNPGAVDYGLRRFDHVVGNVPELAPVAAYISGFTGFHEFAEFTAEDVGTAESGLNSVVLANNAETVLLPLNEPVHGTKRRSQIQTYLDHHGGPGVQHIALASDDVLGTLREMRARSAMGGFEFLAPPPPDYYDDVRRHAGDVLSEEQINECQELGVLVDRDDQGVLLQIFTKPVGDRPTFFLEMIQRIGCMEKDESGQEYQKGGCGGFGKGNFSELFKSIEEYEKSLEAKQAPTVQGS | good resistance | highest resistance | 6.3 |  |  |  |  |  |  |  |  |  |  | 
2 | H141R/N338D/G342D/K418P: mutant rice HPPD (protein) MPPTPTPTATTGAVSAAAAAGENAGFRLVGHRRFVRANPRSDRFQALAFHHVELWCADAASAAGRFAFALGAPLAARSDLSTGNSAHASLLLRSASVAFLFTAPYGGDHGVGADAATTASIPSFSPGAARRFAADHGLAVRAVALRVADAADAFRASVAAGARPAFQPADLGGGFGLAEVELYGDVVLRFVSHPDGADAPFLPGFEGVSNPGAVDYGLRRFDHVVGNVPELAPVAAYISGFTGFHEFAEFTAEDVGTAESGLNSVVLANNAETVLLPLNEPVHGTKRRSQIQTYLDHHGGPGVQHIALASDDVLGTLREMRARSAMGGFEFLAPPPPDYYDDVRRRAGDVLSEEQINECQELGVLVDRDDQGVLLQIFTKPVGDRPTFFLEMIQRIGCMEKDESGQEYQKGGCGGFGPGNFSELFKSIEEYEKSLEAKQAPTVQGS | higher resistance | strongest resistance | 18.8 |  |  |  |  |  |  |  |  |  |  | 
3 | WT: wild-type rice p-hydroxyphenylpyruvate dioxygenase (OsHPPD), SEQ ID NO: 2 (protein, listed as Oryza sativa, The amino acid sequence of Wild-Type rice HPPD protein (OsHPPD _WT)) MPPTPTPTATTGAVSAAAAAGENAGFRLVGHRRFVRANPRSDRFQALAFHHVELWCADAASAAGRFAFALGAPLAARSDLSTGNSAHASLLLRSASVAFLFTAPYGGDHGVGADAATTASIPSFSPGAARRFAADHGLAVHAVALRVADAADAFRASVAAGARPAFQPADLGGGFGLAEVELYGDVVLRFVSHPDGADAPFLPGFEGVSNPGAVDYGLRRFDHVVGNVPELAPVAAYISGFTGFHEFAEFTAEDVGTAESGLNSVVLANNAETVLLPLNEPVHGTKRRSQIQTYLDHHGGPGVQHIALASDDVLGTLREMRARSAMGGFEFLAPPPPNYYDGVRRRAGDVLSEEQINECQELGVLVDRDDQGVLLQIFTKPVGDRPTFFLEMIQRIGCMEKDESGQEYQKGGCGGFGKGNFSELFKSIEEYEKSLEAKQAPTVQGS |  |  | 6.7 | about 60 μM | + | + | + | + | + | + | + | + | + | +
